Test results reported in patent US20180147231A1, “METHOD FOR TREATMENT AND PROGNOSIS OF COLORECTAL CANCER” (Oxford University Innovation Limited, priority 2015, published 2018).

Tests used:
Type in all cases: cell-based, human
[1] = system: SOCS3 expression in CRC lines (Colo205, LS103, SW948, T84, SW480, HCT116); experiment: qPCR of SOCS3 after IL-22 stimulation of CRC cell lines; conditions: 24 h stimulation with IL-22, n=3
Source text: (A) qPCR analysis of IL22RA1 expression level on 3 KRAS-WT (Colo205, LS103, SW948) and 3 KRAS-mutant (T84, SW480, HCT116) CRC cell lines. n=3 *p<0.05, **p<0.01, one-way ANOVA with Tukey's post test for multiple comparisons. (B) Representative FACS plots of IL-22RA1 expression on the Colo205 (KRAS-WT, IL-22RA1^high), T84 (KRAS-Mut, IL-22RA1^high), and SW480 (KRAS-mutant, IL-22RA1^low) lines. (C) Western blot analysis of activation of STAT3, ERK, and Akt signaling pathways in 6 CRC lines following 24 h stimulation with 1 ng/mL IL-22, 10 ng/mL IL-22, and 1 ng/mL IL-6. 1 blot representative of 3 independent experiments.
Colo205, LS1034, SW948, SW480, T84, and HCT116 (ATCC) colorectal cancer cell (CRC) lines were a generous gift from Dr. Simon Leedham and were confirmed to be mycoplasma free. X-MAN DLD-1 isogenic cells were purchased from Horizon Discovery. […]
RNA was extracted from cultured monolayers of CRC lines, suspensions of LIM1863 spheroids, and CRC line derived spheres using the RNeasy Mini Kit (Qiagen) according to the manufacturers protocol. cDNA was synthesized using the High-Capacity cDNA Reverse Transcription Kit (Applied Biosystems). Gene expression was analyzed using Taqman® Gene Expression Assays (Applied Biosystems) and run with Precision 2× Master Mix (Primerdesign) in 384 well plates using the ViiA7 Real-Time PCR System (Applied Biosystems). […]

[2] = system: T84 cells (KRAS-mutant, IL22RA1 high); experiment: Chemotherapy killing assay (MTT), T84 cells; conditions: 48 h pre-treatment with 10 ng/mL IL-22, then 50 μM oxaliplatin or 5-FU for 48 h
Procedure: (A) MTT assay on Colo205, T84, and SW480 cells pre-treated or not pre-treated for 48 h with 10 ng/mL IL-22, then treated with 50 μM oxaliplatin or 5-FU for 48 h. MTT was added 2 h prior to end of 48 h incubation. Formazan particles were dissolved in DMSO and absorbance was measured at 540 nm. Raw absorbances are blank corrected, normalized to a no treatment or IL-22 only, and represented as a % reduction in viability compared to the no treatment or IL-22 only conditions. n=3 independent experiments with 3 experimental replicates, *p<0.05, ****p<0.0001, one-way ANOVA with Tukey's post test for multiple comparisons.
(§1) Colo205, T84, SW480, and DLD-1 cells were seeded at a density of 1×10^4 cells/well in 48 well plates. Cells were pre-treated for 48 h with 10 ng/mL IL-22, then subjected to 50 μM oxaliplatin (Sigma) or 5-fluorouracil (Sigma) or vehicle control (DMSO) for 48 h. 50 μg Methylthiazolyldiphenyl-tetrazolium bromide (MTT) (Sigma) was added to each well 2 h prior to the end of incubation. At the end of the 48 h incubation supernatants were aspirated and formazan particles were solubilized with DMSO and transferred to a fresh plate. Absorbance was measured at 540 nm on Spectrostar Nano plate reader (BMG Labtech).

DLD-1 KRAS MUT cells = experiment: Chemotherapy killing assay (MTT), DLD-1 KRAS MUT; conditions: 48 h pre-treatment with 10 ng/mL IL-22, then 50 μM 5-FU for 48 h
Procedure: Therefore this isogenic pair differs only in KRAS mutation status and allows a clean system for comparison of KRAS-dependent IL-22 effects without inter-cell line mutational heterogeneity. (A) Representative FACS plots of IL-22RA1 expression and quantification of mean fluorescence intensity (WI) showing similar IL-22RA1 expression in the isogenic pair (4 experimental replicates). […] MTT was added 2 h prior to end of 48 h incubation. Formazan particles were dissolved in DMSO and absorbance was measured at 540 nm. Raw absorbances are blank corrected, normalized to a no treatment, and represented as a % viability compared to the no treatment condition. n=5 independent experiments with 3 experimental replicates. p values computed by non-parametric Mann-Whitney test comparing 5 FU alone to IL-22 pretreatment with 5 FU for each DLD-1 line.
as §1, with “At the end of the 48 h incubation supernatants were aspirated and formazan particles were solubilized with DMSO and transferred to a fresh plate.” left out

B1: IL-22: recombinant human IL-22 (R&D Systems), IL-10 superfamily cytokine; human sequence SEQ ID NO: 5 (protein, listed as Homo sapiens)
chain: MAALQKSVSSFLMGTLATSCLLLLALLVQGGAAAPISSHCRLDKSNFQQPYITNRTFMLAKEASLADNNTDVRLIGEKLFHGVSMSERCYLMKQVLNFTLEEVLFPQSDRFQPYMQEVVPFLARLSNRLSTCHIEGDDLHIQRNVQKLKDTVKKLGESGEIKAIGELDLLFMSLRNACI
[1]
  SOCS3 expression (confirmation of active downstream IL-22 signaling): upregulation of SOCS3
[2]
  Protection against oxaliplatin and 5-fluorouracil mediated cell death: protects against oxaliplatin and 5 fluorouracil mediated cell death
DLD-1 KRAS MUT cells
  Protection against 5-fluorouracil mediated cell death: protects against 5 fluorouracil mediated cell death
